Source: patent US20150259419A1 (PROTHENA BIOSCIENCES, published 2015)
Residue numbers refer to the chain shown, from its start.

B1: rat anti-human MCAM monoclonal antibody clone 2107.4.10 (antibody, V domains shown)
VH: QVQLKESGPGLVQSSQTLSLTCTVSGFSLTSNGVSWVRQPPGKGLEWIAAISSGGSTYYNSAFKSRLSISRNTSKSQVLLKMNSLQTEDTGMYFCARHRPFYFDYWGQGVMVTVSS
VL: DIQVTQSPSLLSASVGDRVTLNCKGSQNIYKSLAWFRLKRGEAPKLLIYDANSLQTGIPSRFSGSGSGTDFTLTITSLQPEDVATYFCQQYYSGYTFGAGTKLELK
B2: rat anti-human MCAM monoclonal antibody clone 2120.4.19 (antibody, V domains shown)
VH: QVQLKESGPGLVQPSQTLSLTCTVSGFSLTSNGVSWVRQPPGKGLEWIAAISSGGTTYYNSAFKSRLSISRNTSKSQVLLKMNSLQTEDTAMYFCARRYGYGWYFDFWGPGTMVTVSS
VL: DIRMTQSPSLLSASVGDRVTLNCKASQNIYNSLAWYQQKLGEGPKVLIPNANSLQTGIPSRFSGSGSGTDFTLTISSLQPEDFATYFCQQFYSGYTFGAGTKLELK
notes: also called m2120
B3: h2120_VH1 + h2120_VL3 (antibody, V domains shown)
VH: QVTLKESGPVLVKPTETLTLTCTVSGFSLTSNGVSWVRQPPGKALEWIAAISSGGTTYYNSAFKSRLTISRDTSKSQVVLTMTNMDPVDTATYYCARRYGYGWYFDFWGQGTLVTVSS
VL: B2 VL with R3Q, L10S, L21I, L40P, E42K, G43A, P49F, F87Y, A99Q, L105I
notes: Humanized V regions cloned into expression vectors containing human CK (VL) or human IgG1 (VH); expressed in 293F cells; also called Standard VH + conservative VL; VH1VL3
B4: h2120_VH2 + h2120_VL3 (antibody, human IgG1, V domains shown)
VH: B3 VH with T68S
VL: B2 VL with R3Q, L10S, L21I, L40P, E42K, G43A, P49F, F87Y, A99Q, L105I
notes: also called Conservative VH + conservative VL
B5: h2120_VH4 + h2120_VL3 (antibody, human IgG1, V domains shown)
VH: B3 VH with N32Q
VL: B2 VL with R3Q, L10S, L21I, L40P, E42K, G43A, P49F, F87Y, A99Q, L105I
notes: also called N-Q deamidate VH + conservative VL
B6: h2120_VH1 + h2120_VL2 (antibody, human IgG1, V domains shown)
VH: B3 VH
VL: DIQMTQSPSSLSASVGDRVTITCKASQNIYNSLAWYQQKPGKAPKVLIFNANSLQTGVPSRFSGSGSGTDFTLTISSLQPEDFATYYCQQFYSGYTFGQGTKLEIK
notes: also called Standard VH + aggressive VL
B7: h2120_VH1 + h2120_VL1 (antibody, human IgG1, V domains shown)
VH: B3 VH
VL: B6 VL with V58I
notes: also called Standard VH + standard VL
B8: h2120_VH5 + h2120_VL3 (antibody, V domains shown)
VH: B3 VH with G33A
VL: B6 VL with T22N, V58I
notes: also called h2120VH5VL3; VH5VL3
B9: h2120_VH3 + h2120_VL3 (antibody, human IgG1, V domains shown)
VH: B3 VH with N32S
VL: B6 VL with T22N, V58I
notes: also called N-S deamidate VH + conservative VL

Target: T1, human MCAM domain 1 (MCAMhFc domain construct) (human, UniProt P43121 19-129)
T1 construct: also called amino acids 19-129; not shown: human Fc portion (captured on anti-human IgG Fc biosensors)
T1 sequence: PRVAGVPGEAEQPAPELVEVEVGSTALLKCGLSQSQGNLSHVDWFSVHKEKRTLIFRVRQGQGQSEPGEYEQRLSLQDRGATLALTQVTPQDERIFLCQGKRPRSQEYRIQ
Assay: ForteBio Octet Red, MCAMhFc domains on anti-human IgG Fc biosensors
Description: The following protocol was used: ForteBio anti-human IgG Fc biosensors were used to immobilize various MCAMhFc domains including full length MCAMhFc protein on to biosensor surface. […] After loading these samples into a black 96 well plate, the Octet Red was programmed as follows: 60 seconds for baseline #1; 180 seconds for loading various domains; 60 seconds for baseline #2; 180 seconds for association of antibody to domain; and 240 seconds for dissociation of antibody from domain.
1. MCAMhFc final concentration@5 ug/ml [0374] […] 3. ForteBio anti-human IgG Fc Capture (AHC) biosensors for kinetics experiments, cat #18-5060 [0376] 4. Block 96 well plate from Greiner Bio-one, cat #655209 [0377] 5. ForteBio Octet Red machine [0378] 6. Fresh tissue culture medium, DMEM with 20% FCS, was used as buffer for dilution

Binder	binding result
B1	no binding (tested: 5 ug/ml)
B2	no binding (tested: 5 ug/ml)

Target: T2, human MCAM, full length, expressed on transfected cells (human, UniProt P43121 24-646)
T2 construct: CHO cells transfected with the full length human MCAM gene; also called hMCAM; CD146
T2 chain: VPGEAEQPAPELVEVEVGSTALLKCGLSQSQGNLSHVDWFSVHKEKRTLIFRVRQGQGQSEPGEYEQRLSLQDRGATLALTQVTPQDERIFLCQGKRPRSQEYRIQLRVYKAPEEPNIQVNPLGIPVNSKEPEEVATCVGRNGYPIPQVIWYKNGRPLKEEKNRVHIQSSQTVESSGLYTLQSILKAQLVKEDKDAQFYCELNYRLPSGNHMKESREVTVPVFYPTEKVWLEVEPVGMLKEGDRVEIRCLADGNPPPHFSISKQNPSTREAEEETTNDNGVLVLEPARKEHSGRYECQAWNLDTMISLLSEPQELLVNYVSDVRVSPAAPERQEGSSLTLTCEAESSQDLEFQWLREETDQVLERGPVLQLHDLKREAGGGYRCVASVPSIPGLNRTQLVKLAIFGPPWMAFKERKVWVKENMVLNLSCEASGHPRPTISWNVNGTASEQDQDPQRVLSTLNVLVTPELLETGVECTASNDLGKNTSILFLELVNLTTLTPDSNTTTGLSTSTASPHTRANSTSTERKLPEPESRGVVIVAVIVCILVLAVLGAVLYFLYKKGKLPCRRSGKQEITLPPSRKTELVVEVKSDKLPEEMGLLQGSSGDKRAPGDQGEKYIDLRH
Assay: blocking of laminin 411 (20 ug/ml) binding to CHO cells expressing human MCAM, flow cytometry
Protocol: The 87 independent mouse fusion clones and 26 independent rat fusion clones described in Example 1 above as being capable of (i) binding to human MCAM, and (ii) blocking the interaction between human MCAM and the α-4 chain of laminin were further characterized as follows. First, IC50 quantitation for the ability of the monoclonal antibody to block the binding of human MCAM to the α-4 chain of laminin was determined as follows. CHO cells expressing human MCAM were incubated with an anti-human MCAM antibody (at various concentrations) for 30 minutes at 4 degrees Celsius. […] Unbound laminin was then washed away, and the laminin bound to the surface of the cells was detected with fluorescently labeled anti-laminin antibodies. After washing, the amount of laminin bound to the surface was detected by flow cytometry, and IC50s were calculated based on the mean fluorescent intensity.
Amino acid and nucleic acid sequences of the heavy and light chains of these antibodies, and their hypervariable regions, are provided in SEQ ID NOs:29-92. […] As such, each of these specific monoclonal antibodies was very capable of binding to human MCAM and inhibiting the interaction of cell-expressed human MCAM with its α-4 laminin binding ligand.

Binder	IC50
B1	0.29 µg/mL

Target: T3, recombinant hMCAM-His (human, UniProt P43121 24-559)
T3 construct: not shown: His tag
T3 chain: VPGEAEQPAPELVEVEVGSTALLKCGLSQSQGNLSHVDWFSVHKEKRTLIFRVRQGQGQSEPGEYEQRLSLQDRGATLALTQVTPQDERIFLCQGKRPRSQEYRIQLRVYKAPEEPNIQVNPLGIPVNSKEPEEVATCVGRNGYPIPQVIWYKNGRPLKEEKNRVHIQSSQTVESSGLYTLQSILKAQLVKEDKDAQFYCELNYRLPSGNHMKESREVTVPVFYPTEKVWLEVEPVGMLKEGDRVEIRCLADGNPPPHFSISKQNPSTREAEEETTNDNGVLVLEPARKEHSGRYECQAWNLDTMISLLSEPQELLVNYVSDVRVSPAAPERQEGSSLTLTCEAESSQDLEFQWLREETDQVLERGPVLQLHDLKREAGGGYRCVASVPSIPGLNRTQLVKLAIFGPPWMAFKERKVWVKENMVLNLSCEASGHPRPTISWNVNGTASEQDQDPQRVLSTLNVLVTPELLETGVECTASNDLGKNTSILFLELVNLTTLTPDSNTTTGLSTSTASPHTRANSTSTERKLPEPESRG
Assay: competitive ELISA on hMCAM-His against biotinylated rodent or chimeric 2120; relative to rodent 2120
Protocol: ELISA plates were coated with recombinant hMCAM-His, and blocked with casein buffer to prevent non-specific binding. Biotinylated rodent or chimeric antibody was added at a subsaturating concentration, in the presence or absence of 3× increasing concentrations of unlabeled competitor (humanized antibody, rodent, or chimeric). After washing to remove unbound antibody, streptavidin HRP was added to allow detection of the biotinylated antibody. The ELISA was developed with TMB substrate and the OD450 was measured. The IC50 of the unlabeled competitor was determined using the GraphPad Prism5 software.

Binder	Fold over rodent (competitive ELISA IC50)	Fold over rodent (competitive ELISA IC50, Expt. #1)	Fold over rodent (competitive ELISA IC50, Expt. #2)
B3	1.8 fold	2.23 fold	2.42 fold
B4		1.93 fold	2.62 fold
B5	5 fold		
B6	3.1 fold		
B7	3.1 fold		
B8	2.4 fold		
B9		3.47 fold	

Target: T3, recombinant hMCAM-His
Assay: ForteBio Octet Red, antibody on anti-human Fc sensors, hMCAMHis analyte, 1:1 fit; relative to rodent 2120
Protocol: The affinities were measured using the ForteBio Octet Red. Anti-human Fc sensors were used to capture the humanized antibodies, and several concentrations of hMCAMHis analyte were used to determine the affinity using a 1:1 fitting model.

Binder	Fold over rodent (Forte affinity)	Fold over rodent (Forte affinity, Expt. #1)	Fold over rodent (Forte affinity, Expt. #2)	Fold over rodent (Forte affinity, second column)
B3	5.9 fold	5.64 fold	6.21 fold	5.8 fold
B4		6.57 fold	6.43 fold	
B5	17.4 fold			
B6	10.8 fold			
B7	8.8 fold			
B8	1.1 fold			1.2 fold
B9		16.1 fold		

Target: T2, human MCAM, full length, expressed on …
Assay: laminin/FACS assay: blocking of laminin 411 binding to hMCAM expressing CHO cells; relative to rodent 2120
Protocol: Following incubation for 30-45 minutes, the cells were washed and anti-laminin conjugated to AF650 (NovusBio) was added to detect the bound laminin. The cells were run on a flow cytometer to measure the laminin binding signal.

Binder	Fold over rodent (Blocking, Expt#1)	Fold over rodent (Blocking, Expt#2)
B3	1.7 fold	2.8 fold
B5	3.8 fold	5.6 fold
B6	4.6 fold	12.6 fold
B7	2 fold	3.5 fold
B8	1.2 fold	1.5 fold
